Assay [1] has as its target T1, biotinylated extracellular domain of human CD33 (SEQ ID NO: 87), Fc and Avi tagged (human, UniProt P20138 18-259, biotinylated with BirA-GST (Avi tag)).
T1 construct: also called hCD33; human target hCD33
In words: SPR (ProteOn XPR36), target on GLC chip, DARPin as analyte.

Assay [2] deals with T2, biotinylated extracellular domain of human CD123 (SEQ ID NO: 88), Fc and Avi tagged (human, UniProt P26951 19-303, biotinylated with BirA-GST (Avi tag)).
T2 construct: also called hCD123
T2 sequence: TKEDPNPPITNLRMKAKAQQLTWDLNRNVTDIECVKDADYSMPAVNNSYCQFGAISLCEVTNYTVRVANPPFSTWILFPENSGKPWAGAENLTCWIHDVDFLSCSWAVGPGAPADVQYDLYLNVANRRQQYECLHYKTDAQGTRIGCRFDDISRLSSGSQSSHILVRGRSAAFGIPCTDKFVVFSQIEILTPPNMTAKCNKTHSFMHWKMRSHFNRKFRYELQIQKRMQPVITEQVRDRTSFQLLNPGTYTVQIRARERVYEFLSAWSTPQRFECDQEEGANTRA
In words: SPR (ProteOn XPR36), target on GLC chip. From the text:
(§1) For that, DARPin® protein #27, DARPin® protein #29, DARPin® protein #47 and DARPin® protein #48 and DARPin® protein #49, DARPin® protein #50, DARPin® protein #51, DARPin® protein #52, DARPin® protein #31, DARPin® protein #53, DARPin® protein #54, DARPin® protein #55, DARPin® protein #34, DARPin® protein #33, DARPin® protein #39 and DARPin® protein #36 were subcloned and expressed as described above into derivatives of the pQE30 (Qiagen) expression vector, containing an N-terminal His-tag, CD33, CD123 and/or CD70 binding ankyrin repeat domains, followed by a CD3 specific ankyrin repeat domain and for some constructs by a human serum albumin specific ankyrin repeat domain.
(§2) Briefly, biotinylated human CD70, CD123 and CD33 was diluted in PBST (PBS, pH 7.4 containing 0.005% Tween 20®) and coated on a GLC chip (BioRad) to a level of around 200, 460 and 450 resonance units (RU) respectively. HSA in NaOAc pH 5.0 was directly immobilized on the GLC chip to a level of 800 RU. Bio.CD70, bio. CD33 and bio. CD123 required to have Neutravidin coated first to a level of 6000 RU before the biotinylated targets could be applied. The interaction of the selected ankyrin repeat proteins and human CD70, CD123 and CD33 was then measured by injecting 300 μl running buffer (PBS, pH 7.4 containing 0.005% Tween 20®) containing serial dilutions of ankyrin repeat proteins covering a concentration range between 100 nM and 2.6 nM (100, 40, 16, 6.4 and 2.6 nM respectively) for multi-trace SPR measurements, with an association of 120 s and dissociation of 1200 s using a constant flow of 100 μl/min. The regeneration was performed using 30 μl of 4 mM Glycine pH 2. The signals (i.e. resonance unit (RU) values) of the interspots and a reference injection (i.e. injection of running buffer only) were subtracted from the RU traces obtained after injection of ankyrin repeat protein (double-referencing).

Assay [3] concerns the target T3, human serum albumin (human, UniProt P02768 25-609).
T3 construct: also called HSA; SA
Briefly: SPR (ProteOn XPR36), target on GLC chip.
From the text: as §1, §2

In assay [4] the target is T4, extracellular domain of human CD70 (SEQ ID NO: 89), hCD70-Fc-trimer, ACRO Biosystems (human, UniProt P32970 52-193, chemically biotinylated where the biotinylated form was used).
T4 construct: also called human CD70-Fc-trimer; Bio.CD70
T4 sequence: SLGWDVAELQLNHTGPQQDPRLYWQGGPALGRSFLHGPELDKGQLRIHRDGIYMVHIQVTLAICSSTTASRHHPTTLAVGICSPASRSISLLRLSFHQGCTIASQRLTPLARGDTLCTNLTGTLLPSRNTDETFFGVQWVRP
Briefly: SPR (ProteOn XPR36), target on GLC chip.
From the text: as §1, §2

Assay [5] deals with T2, biotinylated extracellular domain of …. In words: SPR (ProteOn XPR36), target on GLC chip, DARPin as analyte.
The target in assay [6] is T3, human serum albumin. Described as above.
Assay [7] addresses T4, extracellular domain of human CD70 (SEQ …). The description is as above.
Assay [8] addresses T5, human scCD3εγ (scCD3εγ_Avi-Bio) (human, biotin on the C-terminal Avi-tag (in vitro, BirA) where the biotinylated form was used).
T5 construct: Used for all SPR and HTRF results on human CD3; also called recombinant human CD3; human CD3
T5 chain: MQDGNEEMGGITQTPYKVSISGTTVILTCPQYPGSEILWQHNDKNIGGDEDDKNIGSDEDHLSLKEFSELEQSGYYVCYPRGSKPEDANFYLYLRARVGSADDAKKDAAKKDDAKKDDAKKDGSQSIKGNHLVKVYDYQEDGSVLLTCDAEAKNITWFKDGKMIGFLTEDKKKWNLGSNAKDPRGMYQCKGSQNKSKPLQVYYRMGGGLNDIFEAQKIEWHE
Briefly: SPR (ProteOn), DARPin on GLC chip, scCD3εγ as analyte. The procedure: Similarly, the binding affinities of two purified ankyrin repeat proteins on recombinant human CD3 target were analyzed as described before. Briefly, DARPin® protein #53, DARPin® protein #54 in NaOAc pH 4.5 was coated on a GLC chip (BioRad) to a level of around 790-1500 resonance units (RU). The interaction of ankyrin repeat protein and human CD3 was then measured by injecting 300 μl running buffer (PBS, pH 7.4 containing 0.005% Tween 20®) containing serial dilutions of human scCD3εγ (56.4 μM), was diluted in PBST (PBS, pH 7.4 containing 0.005% Tween 20®) and covering a concentration range between 300 nM and 19 nM for multi-trace SPR measurements, followed by a running buffer flow for at least 10 minutes at a constant flow rate of 60 μl/min (off-rate measurement).
The regeneration was performed using 30 μl of 10 mM Glycine pH 2. The signals (i.e. resonance unit (RU) values) of the interspots and a reference injection (i.e. injection of running buffer only) were subtracted from the RU traces obtained after injection of CD3 (double-referencing). Binding parameters (KD, on-rate, off-rate) against CD3 were determined by using a standard Langmuir fit model.

T1 sequence (P20138 18-259 R69G): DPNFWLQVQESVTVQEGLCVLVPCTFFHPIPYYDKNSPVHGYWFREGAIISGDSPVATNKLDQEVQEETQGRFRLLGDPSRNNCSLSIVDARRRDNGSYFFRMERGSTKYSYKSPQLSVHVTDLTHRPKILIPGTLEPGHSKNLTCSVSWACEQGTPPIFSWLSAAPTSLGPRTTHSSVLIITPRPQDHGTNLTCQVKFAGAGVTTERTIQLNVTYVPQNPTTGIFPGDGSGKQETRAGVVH
T3 sequence (P02768 25-609 limits assumed): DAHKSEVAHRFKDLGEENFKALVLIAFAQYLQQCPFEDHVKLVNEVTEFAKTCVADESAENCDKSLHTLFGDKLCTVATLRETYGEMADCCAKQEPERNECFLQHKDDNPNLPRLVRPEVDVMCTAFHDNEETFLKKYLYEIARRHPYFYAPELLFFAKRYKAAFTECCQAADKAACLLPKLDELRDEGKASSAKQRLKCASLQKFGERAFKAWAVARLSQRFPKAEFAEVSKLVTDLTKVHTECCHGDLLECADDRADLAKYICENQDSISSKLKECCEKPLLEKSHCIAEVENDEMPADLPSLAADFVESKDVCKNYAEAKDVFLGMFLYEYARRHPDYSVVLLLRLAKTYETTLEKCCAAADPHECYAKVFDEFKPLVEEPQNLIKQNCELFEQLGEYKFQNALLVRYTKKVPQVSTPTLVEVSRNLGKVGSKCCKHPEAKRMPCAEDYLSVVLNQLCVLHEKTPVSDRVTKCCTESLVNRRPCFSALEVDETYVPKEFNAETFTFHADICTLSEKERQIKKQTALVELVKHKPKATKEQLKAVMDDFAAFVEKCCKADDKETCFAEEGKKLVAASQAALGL

B1: DARPin® protein #39 (designed binder)
chain: DLGVKLLRAAVHGQLDEVRILLKAGADVNAKDTDGETPLHYAAQFGHLEIVEVLLKAGADVNAKDAYGATPLHWAAWHGHLEIVEVLLKAGADVNAQDVSGATPADLAAKVGHQDIAEVLQKAA
notes: CD33-specific ankyrin repeat domain; not shown: N-terminal His-tag
With B1, in assay [1], binding was put at a Kd of 24 nM. Also, the binding result (in assay [2]; with human serum albumin [3]; in assay [4]) was “no binding (tested: 100 nM (highest concentration))” in each case.

B2: DARPin® protein #53 (designed binder)
chain: MRGSHHHHHHDLGKKLLEAARAGQDDEVRELLKAGADVNAKDYFSHTPLHLAARNGHLKIVEVLLKAGADVNAKDFAGKTPLHLAAADGHLEIVEVLLKAGADVNAQDIFGKTPADIAADAGHEDIAEVLQKAAGSPTPTPTTPTPTPTTPTPTPTGSDLGYKLLQAAYDGQLDEVRILLKAGADVNAKDSRGQTPLHYAASIGHLEIVEVLLKAGADVNAKDDHGWTPLHLAAWSGHLEIVEVLLKAGADVNAQDQEGTTPADLAAVQGHQDIAEVLQKAAGSPTPTPTTPTPTPTTPTPTPTGSDLGKKLLEAALEGQLDEVRELLKAGADVNAKDQEGYTPLHLAAALGHLEIVEVLLKAGADVNAKDSIGRTPLHLAAYKGHLEIVEVLLKAGADVNAQDLLGETPADLAAEQGHQDIAEVLQKAAGSPTPTPTTPTPTPTTPTPTPTGSDLGVKLLRAAVHGQLDEVRILLKAGADVNAKDTDGETPLHYAAQFGHLEIVEVLLKAGADVNAKDAYGATPLHWAAWHGHLEIVEVLLKAGADVNAQDVSGATPADLAAKVGHQDIAEVLQKAAGSPTPTPTTPTPTPTTPTPTPTGSDLGQKLLEAAWAGQDDEVRELLKAGADVNAKNSRGWTPLHTAAQTGHLEIFEVLLKAGADVNAKDDKGVTPLHLAAALGHLEIVEVLLKAGADVNAQDSWGTTPADLAAKYGHEDIAEVLQKAA
notes: HSA-CD70-CD123-CD33-CD3
Turning to B2, the Kd (as a rule, the concentration at which binding is half-saturated) in assay [5] amounted to 8 nM; in the assay with human serum albumin [6], 24 nM; in assay [1] it was 12 nM; in assay [7], 0.7 nM; in assay [8], 139 nM. In addition, the koff (usually the rate constant with which the complex falls apart) in assay [8] worked out at 0.0065 s⁻¹. The kon – broadly, a measure of how fast the partners come together – in assay [8] worked out at 48000 M⁻¹ s⁻¹.

B3: DARPin® protein #54 (designed binder)
chain: MRGSHHHHHHDLGKKLLEAARAGQDDEVRELLKAGADVNAKDYFSHTPLHLAARNGHLKIVEVLLKAGADVNAKDFAGKTPLHLAAADGHLEIVEVLLKAGADVNAQDIFGKTPADIAADAGHEDIAEVLQKAAGSPTPTPTTPTPTPTTPTPTPTGSDLGKKLLEAARAGQDDEVRELLKAGADVNAKDYFSHTPLHLAARNGHLKIVEVLLKAGADVNAKDFAGKTPLHLAAADGHLEIVEVLLKAGADVNAQDIFGKTPADIAADAGHEDIAEVLQKAAGSPTPTPTTPTPTPTTPTPTPTGSDLGYKLLQAAYDGQLDEVRILLKAGADVNAKDSRGQTPLHYAASIGHLEIVEVLLKAGADVNAKDDHGWTPLHLAAWSGHLEIVEVLLKAGADVNAQDQEGTTPADLAAVQGHQDIAEVLQKAAGSPTPTPTTPTPTPTTPTPTPTGSDLGKKLLEAALEGQLDEVRELLKAGADVNAKDQEGYTPLHLAAALGHLEIVEVLLKAGADVNAKDSIGRTPLHLAAYKGHLEIVEVLLKAGADVNAQDLLGETPADLAAEQGHQDIAEVLQKAAGSPTPTPTTPTPTPTTPTPTPTGSDLGVKLLRAAVHGQLDEVRILLKAGADVNAKDTDGETPLHYAAQFGHLEIVEVLLKAGADVNAKDAYGATPLHWAAWHGHLEIVEVLLKAGADVNAQDVSGATPADLAAKVGHQDIAEVLQKAAGSPTPTPTTPTPTPTTPTPTPTGSDLGQKLLEAAWAGQDDEVRELLKAGADVNAKNSRGWTPLHTAAQTGHLEIFEVLLKAGADVNAKDDKGVTPLHLAAALGHLEIVEVLLKAGADVNAQDSWGTTPADLAAKYGHEDIAEVLQKAA
notes: HSA-HSA-CD70-CD123-CD33-CD3
As for B3, the Kd in assay [5] amounted to 33 nM; in the assay with human serum albumin [6], 1.2 nM; in assay [1] it was 8.2 nM; in assay [7] it was 0.61 nM; in assay [8], 129 nM. This molecule showed a koff in assay [8] of 0.0067 s⁻¹. Besides, the kon in assay [8] stood at 52000 M⁻¹ s⁻¹.
